T1: purified recombinant RPS1 (M. smegmatis, UniProt A0QYY6 1-479)
T1 construct: 30S ribosomal protein S1 (RPS1) of Mycobacterium smegmatis, gene amplified from M. smegmatis genomic DNA; Cloned into pET28a or pGEX-6P-1; also called purified RPS1; ribosomal protein S1; source: E. coli BL21 (DE3), purified
T1 sequence (looked up): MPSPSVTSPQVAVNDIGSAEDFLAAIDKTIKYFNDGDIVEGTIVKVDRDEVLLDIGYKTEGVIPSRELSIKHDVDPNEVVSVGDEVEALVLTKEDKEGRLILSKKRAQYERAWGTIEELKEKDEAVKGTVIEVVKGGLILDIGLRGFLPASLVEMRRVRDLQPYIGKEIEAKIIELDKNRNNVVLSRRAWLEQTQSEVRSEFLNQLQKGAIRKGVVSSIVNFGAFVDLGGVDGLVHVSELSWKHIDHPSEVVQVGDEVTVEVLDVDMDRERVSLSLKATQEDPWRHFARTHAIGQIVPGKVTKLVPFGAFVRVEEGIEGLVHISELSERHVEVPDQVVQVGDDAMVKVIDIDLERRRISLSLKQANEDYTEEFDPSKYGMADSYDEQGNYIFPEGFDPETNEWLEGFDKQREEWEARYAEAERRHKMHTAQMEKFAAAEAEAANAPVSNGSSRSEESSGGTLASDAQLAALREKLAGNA

T2: 30S ribosomal protein S1 (RPS1) (Mycobacterium smegmatis, UniProt A0QYY6 1-479)
T2 sequence: T1 sequence (looked up)

T3: MSMEG_2731;30S ribosomal protein S1 (RPS1) (Mycobacterium smegmatis;Mycobacterium …, UniProt A0QVX6;A0QYY6 1-454;1-479, |)
T3 sequence 1: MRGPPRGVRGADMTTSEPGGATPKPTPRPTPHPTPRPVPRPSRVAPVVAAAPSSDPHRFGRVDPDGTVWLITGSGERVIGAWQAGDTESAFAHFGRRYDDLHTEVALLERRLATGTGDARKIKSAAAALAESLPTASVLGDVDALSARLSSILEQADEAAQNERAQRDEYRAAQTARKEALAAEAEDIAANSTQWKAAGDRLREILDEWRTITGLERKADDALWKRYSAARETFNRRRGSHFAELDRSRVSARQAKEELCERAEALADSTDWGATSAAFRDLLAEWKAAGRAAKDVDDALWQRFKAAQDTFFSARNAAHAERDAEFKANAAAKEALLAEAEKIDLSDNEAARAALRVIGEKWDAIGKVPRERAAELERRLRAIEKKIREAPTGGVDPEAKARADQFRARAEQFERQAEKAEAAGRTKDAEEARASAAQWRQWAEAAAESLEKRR
T3 sequence 2: T1 sequence (looked up)

B1: MSMEG_2731, N-terminal His-tagged recombinant protein (natural protein, M. smegmatis, UniProt A0QVX6 1-454, looked up)
chain: T3 sequence 1
notes: MSMEG_2731, conserved hypothetical alanine and arginine rich protein of Mycobacterium smegmatis, 454 amino acids, three tandem repeats of DUF349; The protein tends to degrade at its N-terminus in vitro; also called full-length MSMEG_2731; recombinant MSMEG_2731; source: E. coli BL21 (DE3), pET28a, purified (Ni-NTA, gel filtration)
B2: RNA 25 nt (ssRNA)
RNA: CACGUAUCUCGAGGAGCGGAUAUGA
modifications: 5' biotin

Experiments:
[1] = target: T1, purified recombinant RPS1; test: SPR; Biacore T100, 25°C; mixtures of 2.5 μM RPS1 with 1.25, 2.5 or 5 μM MSMEG_2731 passed over RNA immobilised on an SA chip (100 RU); 25 mM Tris-HCl pH 7.4, 150 mM NaCl, 0.005% Tween 20; conditions: both partners purified
[2] = target: T2, 30S ribosomal protein S1 (RPS1); test: SPR; 2.5 uM RPS1; fast association, complete dissociation; SPR (Biacore T100, SA chip): 25 mM Tris-HCl pH 7.4, 150 mM NaCl, 0.005% Tween 20, 25 C, 30 ul/min; conditions: protein: recombinant; Methods name pET28a or pGEX-6P-1; label: 5' biotin (immobilized on SA chip); single strand
[3] = target: T3, MSMEG_2731;30S ribosomal protein S1 …; test: SPR; 2.5 uM RPS1 with 1.25, 2.5 or 5 uM MSMEG_2731; maximum response at 1:1; kinetics like RPS1 alone; SPR (Biacore T100, SA chip): 25 mM Tris-HCl pH 7.4, 150 mM NaCl, 0.005% Tween 20, 25 C, 30 ul/min; conditions: protein: recombinant;recombinant; Methods name pET28a or pGEX-6P-1; copies: 1;1; label: 5' biotin (immobilized on SA chip); single strand

Binder	stoichiometry N [1]	binding result [2]	binding result [3]
B1	1		
B2		binds	binds

— article PMC3348880, “MSMEG_2731, an Uncharacterized Nucleic Acid Binding Protein from Mycobacterium smegmatis, Physically Interacts with RPS1” (PLoS ONE, 2012)
